The values below come from paper PMC8163982, “Partial agonism improves the anti-hyperglycaemic efficacy of an oxyntomodulin-derived GLP-1R/GCGR co-agonist” (Molecular Metabolism, 2021).

For assay [1], the target named is T1, GCGR (Homo sapiens, UniProt P47871). Kind of assay: NanoBiT mini-Gs recruitment to GCGR-SmBiT in HEK293T cells. Details: expressed in transfected cells; host or cells: HEK293T. Type of assay: cell-based.
Assay [2] concerns the target T1, GCGR. Kind of assay: NanoBiT β-arrestin-2 recruitment to GCGR-SmBiT in HEK293T cells. Type of assay: cell-based. On the set-up: expressed in transfected cells; host or cells: HEK293T. A general note: Arrestin recruitment assays detect the binding of arrestin to an activated receptor.
Assay [3] addresses GCGR-SmBiT (glucagon receptor) (UniProt P47871).
The target of assay [4] is GLP-1R-SmBiT (glucagon-like peptide-1 receptor) (UniProt P43220).
Another assay deals with Huh7-GCGR cells. Kind of assay: Fluorescent TMR-ligand internalisation in Huh7-GCGR cells (high content imaging). Particulars: 100 nM, 30 min, n = 4. Type of assay: cell-based, human. The protocol: Huh7-GCGR cells were seeded in black clear-bottom plates coated with 0.1% poly-D-lysine and assayed 24 h later. Then 100 nM of fluorescent TMR-conjugated agonist or vehicle was applied for 30 min. The cells were then washed with cold HBSS and incubated for 5 min in cold acetic acid +150 mM of NaCl buffer at a pH of 2.9 to strip surface ligands. After a final wash, the cells were resuspended in HBSS and the fluorescent ligand uptake was measured and quantified by high content imaging as described in Section 2.9.

The subject of a further assay is mouse pancreatic islets. Kind of assay: Fluorescent TMR-ligand uptake in mouse pancreatic islets. Type of assay: cell-based. Conditions: 100 nM, 30 min, confocal imaging, n = 2. How it is done: Mouse pancreatic islets were isolated and left to recover overnight before being immobilised with Matrigel onto glass-bottom Mattek dishes and stimulated with 100 nM of the indicated TMR-modified agonist for 30 min. Z stacks were recorded for the whole islet volume on a Zeiss LSM780 inverted confocal microscope with a 20× air objective and 1 μm of separation between optical slices.

The target of assay [5] is GCGR-SmBiT (glucagon receptor) (UniProt P47871). In words: split reporter (BiFC, NanoBiT); HEK293T cells co-transfected with receptor-SmBiT and LgBiT-mini-G or LgBiT-β-arrestin-2; in HBSS with furimazine, 37 °C; 5 min baseline, then peptide agonist added and luminescence recorded for 30 min; K@[max] from one-phase (mini-Gs) or bi-exponential (β-arrestin-2) fits at a single maximal agonist concentration.

The target in assay [6] is GLP-1R-SmBiT (glucagon-like peptide-1 receptor) (UniProt P43220). The assay is described as above.

Where a SMILES comes first, the peptide text is derived from it. [ ]: non-standard residue; d: D form. Aib = CC(C)(N)C(=O)O

GLP-1R-SmBiT (glucagon-like peptide-1 receptor), sequence (P43220 24-463): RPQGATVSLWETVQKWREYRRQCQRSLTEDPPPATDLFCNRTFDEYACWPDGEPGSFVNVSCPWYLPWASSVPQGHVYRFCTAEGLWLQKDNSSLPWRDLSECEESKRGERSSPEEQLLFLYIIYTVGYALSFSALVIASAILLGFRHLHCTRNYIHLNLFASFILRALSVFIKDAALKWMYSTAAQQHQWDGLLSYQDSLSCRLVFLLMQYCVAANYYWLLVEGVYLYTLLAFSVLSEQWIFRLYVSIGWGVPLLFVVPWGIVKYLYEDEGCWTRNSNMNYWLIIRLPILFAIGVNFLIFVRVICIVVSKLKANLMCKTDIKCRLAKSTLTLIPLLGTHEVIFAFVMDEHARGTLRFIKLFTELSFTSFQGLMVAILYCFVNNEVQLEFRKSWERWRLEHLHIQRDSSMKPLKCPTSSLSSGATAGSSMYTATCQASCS
GCG-H3 (peptide), sequence (peptide): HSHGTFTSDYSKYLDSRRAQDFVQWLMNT
T1 sequence (P47871 26-477): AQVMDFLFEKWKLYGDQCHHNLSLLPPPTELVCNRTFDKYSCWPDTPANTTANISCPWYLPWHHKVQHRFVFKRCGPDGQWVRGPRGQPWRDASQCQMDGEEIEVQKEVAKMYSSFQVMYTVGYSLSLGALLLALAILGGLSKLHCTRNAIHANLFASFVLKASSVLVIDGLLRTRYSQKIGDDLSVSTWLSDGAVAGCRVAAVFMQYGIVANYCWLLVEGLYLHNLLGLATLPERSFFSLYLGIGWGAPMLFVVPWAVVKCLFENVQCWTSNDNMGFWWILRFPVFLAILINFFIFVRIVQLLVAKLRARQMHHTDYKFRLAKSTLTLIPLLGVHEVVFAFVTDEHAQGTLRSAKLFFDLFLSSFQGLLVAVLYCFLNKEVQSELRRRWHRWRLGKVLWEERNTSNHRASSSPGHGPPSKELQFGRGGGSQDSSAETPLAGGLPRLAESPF
GCGR-SmBiT (glucagon receptor), sequence (P47871 26-477): as above

In general, Emax refers to the maximal effect, on the per cent scale that the assay sets. Regarding `CSCC[C@H](NC(=O)[C@H](CC(C)C)NC(=O)[C@H](Cc1c[nH]c2ccccc12)NC(=O)[C@H](CCC(N)=O)NC(=O)[C@@H](NC(=O)[C@H](Cc1ccccc1)NC(=O)[C@H](CC(=O)O)NC(=O)[C@H](CCC(N)=O)NC(=O)[C@H](C)NC(=O)[C@H](CCCNC(=N)N)NC(=O)[C@H](CCCNC(=N)N)NC(=O)[C@H](CO)NC(=O)[C@H](CC(=O)O)NC(=O)[C@H](CC(C)C)NC(=O)[C@H](Cc1ccc(O)cc1)NC(=O)[C@H](CCCCN)NC(=O)[C@H](CO)NC(=O)[C@H](Cc1ccc(O)cc1)NC(=O)[C@H](CC(=O)O)NC(=O)[C@H](CO)NC(=O)[C@@H](NC(=O)[C@H](Cc1ccccc1)NC(=O)[C@@H](NC(=O)CNC(=O)[C@H](Cc1c[nH]cn1)NC(=O)C(C)(C)NC(=O)[C@@H](N)Cc1c[nH]cn1)[C@@H](C)O)[C@@H](C)O)C(C)C)C(=O)N[C@@H](CC(N)=O)C(=O)N[C@H](C(=O)O)[C@@H](C)O` [GCG-AIB2H3] (H-H[Aib]HGTFTSDYSKYLDSRRAQDFVQWLMNT-OH), the maximal response (Emax) on GCGR [1] (HEK-293T, read-out: GCGR Mini-Gs Emax) came to 74 ± 5%; at GCGR [2] (HEK-293T, read-out: GCGR β-arrestin-2 Emax), 53 ± 2%. For the same molecule, the EC50 at GCGR [1] (read-out: GCGR Mini-Gs pEC50 (converted)) is 100 nM; at GCGR [2] (read-out: GCGR β-arrestin-2 pEC50 (converted)), 251 nM.
For the molecule GCG-AIB2H3 (peptide), in assay [3], the Emax of mini-Gs recruitment to GCGR-SmBiT (NanoBiT, HEK293T, AUC over 30 min) worked out at 74 % max; the Emax of β-arrestin-2 recruitment to GCGR-SmBiT (NanoBiT, HEK293T, AUC over 30 min) was determined as 53 % max; the pEC50 of mini-Gs recruitment to GCGR-SmBiT (NanoBiT, HEK293T, AUC over 30 min) is 7 pEC50 (M); the pEC50 of β-arrestin-2 recruitment to GCGR-SmBiT (NanoBiT, HEK293T, AUC over 30 min) was 6.6 pEC50 (M).
The corresponding values for GCG-H3 (peptide) are 66 % max, 54 % max, 6.8 pEC50 (M) and 6.3 pEC50 (M).
As for GLP-1-AIB2 (peptide), in assay [4], the Emax of mini-Gs recruitment to GLP-1R-SmBiT (NanoBiT, HEK293T, AUC over 30 min) turned out to be 96 % max; the Emax of β-arrestin-2 recruitment to GLP-1R-SmBiT (NanoBiT, HEK293T, AUC over 30 min) was found to be 68 % max; the pEC50 of mini-Gs recruitment to GLP-1R-SmBiT (NanoBiT, HEK293T, AUC over 30 min) was 7.9 pEC50 (M); the pEC50 of β-arrestin-2 recruitment to GLP-1R-SmBiT (NanoBiT, HEK293T, AUC over 30 min) is 7.7 pEC50 (M).
Consider Glucagon-AIB2 (GCG-AIB2) (peptide), for which, in assay [3], the Emax of mini-Gs recruitment to GCGR-SmBiT (NanoBiT, HEK293T, AUC over 30 min) amounted to 54 % max; the Emax of β-arrestin-2 recruitment to GCGR-SmBiT (NanoBiT, HEK293T, AUC over 30 min) is 25 % max; the pEC50 of mini-Gs recruitment to GCGR-SmBiT (NanoBiT, HEK293T, AUC over 30 min) was 6.7 pEC50 (M); the pEC50 of β-arrestin-2 recruitment to GCGR-SmBiT (NanoBiT, HEK293T, AUC over 30 min) was 6.2 pEC50 (M).
With “HXHGTFTSDYSKYLDAKRAQEFIEWLLAGHHHHHPS(K-TMR)W [SRB103H-TMR, SRB103H analogue conjugated to tetramethylrhodamine (TMR) close to the C-terminus]”, the “TMR-ligand uptake in Huh7-GCGR cells” value in the assay on Huh7-GCGR cells is “greater uptake”.
Regarding “HXQGTFTSDYSKYLDAKRAQEFIEWLLAGHHHHHPS(K-TMR)W [SRB103Q-TMR, SRB103Q analogue conjugated to tetramethylrhodamine (TMR) close to the C-terminus]”, the “TMR agonist uptake in mouse islets” value in the assay with mouse pancreatic islets was “somewhat reduced compared to SRB103H-TMR”.
With LgBiT-mini-Gs (domain or fragment), in assay [5], the K@[max] with GCG (association rate constant at maximal agonist stimulation) worked out at 0.17 min⁻¹, the K@[max] with GCG-AIB2 (association rate constant at maximal agonist stimulation) came out at 0.11 min⁻¹, the K@[max] with GCG-AIB2H3 (association rate constant at maximal agonist stimulation) stood at 0.13 min⁻¹ and the K@[max] with GCG-H3 (association rate constant at maximal agonist stimulation) came out at 0.13 min⁻¹. For the same molecule, in assay [5], the K@[max] with SRB103H (association rate constant at maximal agonist stimulation) came to 0.14 min⁻¹ and the K@[max] with SRB103Q (association rate constant at maximal agonist stimulation) was determined as 0.13 min⁻¹. In assay [6], this molecule displayed a K@[max] with GLP-1-AIB2 (association rate constant at maximal agonist stimulation) of 0.21 min⁻¹, a K@[max] with SRB103H (association rate constant at maximal agonist stimulation) of 0.93 min⁻¹ and a K@[max] with SRB103Q (association rate constant at maximal agonist stimulation) of 0.7 min⁻¹.
